# Results reported in PMC7163869.
# Target: Chikungunya virus-like particles (strain 37997) (chikungunya virus (strain 37997))
# Assay: BLI
molecule,measurement,value
Mouse Mxra8 ectodomain 23-296 (from UniProt Q9DBV4 23-296) (domain or fragment),Kd,66.4 nM
Cattle Δmoo Mxra8 ectodomain (domain or fragment) VLLSSGPSGPATSDRSVVSESTVSWAAGARAVLRCQSPRMVWTQDRLHDRQRVVHWDLSGSKAGGPARRLVDMYSTGEQRVYEPRDRGRLLLPPSAFHDGNFSLFIRAVEETDEGLYTCNLHHHYCHLYESLAVSLEVTDDPRAAGAHWDGEKEVLAVERGAPALLTCVNRAHVWTDRHLEEAQQVVHWDRQPPGVPHDRADRLLDLYASGERRAYGPPFLRDRVAVEADAFARGDFSLLIDPVEPADEGTYSCHLHHHYCGLHERRVFHLRVTEPAARPPPPPRDSPGNGSSHSGAPGPGARDPTLTRGRSVINVIVPEGRAHFFQQ,Kd,72.3 nM
